B1: FdR28 (Streptomyces ahygroscopicus; V1M) (protein)
chain: MVVGASLAGLRAAEALRGEGFTGSLTMIGDELGEPYDRPPLSKQVLTGWVPADNTKLPRRRDVDAEWLLGVPASGLDLANNHVRLADGRQVPFDRVPISTGVRARPWFVESEAALDGVFVVRTREHAEALQRALAAGPSRVLVIGAGFTGSEIASVCRERDIPVTVAELAPAPLVGALGAMIGDVAADVQRAHGVDLRCGVKVTQLEGDAQGRLRRAHFDDGTTVDADVAVVALGGIRNTDWLRDSGLAAGVWGIACDTGCRALDLNGLVTDDVFVAGDVARCPNPIYEYRLISLEHWANAVEQAEVAAHNMVSGQADRWPHLTLPLFWSIQFGINIKSVGVPTFADEVVVTQGSVPDHRFVAAYGYRGRVTAAVSFNNAKWLDHHRRLIETAAPFPPLCPTPDQPADTKPVPVDFPGPALLAQGATVVVTGHDPSERRVTAAYQHR
notes: FAD flavoprotein; pRSET-b (vector His tag), E. coli BL21(DE3), Ni-Sepharose purified; GTG start changed to ATG; cloning primers encode N-terminal MVVGAS, C-terminal TAAYQHR
B2: FdR18 (Streptomyces hygroscopicus) (protein)
chain: MVDAHQTFVIVGGGLAGAKAAETLRAEGFTGRVILICDERDHPYERPPLSKGYLLGKEERDSVFVHEPAFYAQARIELHLGQPAVHLDPAARTVRLGDGTLIAYDKLLLATGAEPRRLDVPGTGLAGVHHLRRLAHAERLRGVLASLGRENGHLVIAGAGWIGLEVAAAARSYGAEVTIIEPEPTPLHGILGPELGALFTDLHAEHGVRFHFGARLTEIVGQDGMVVSVRTDDGEEHPAHDVLAAIGAAPRTALAEQAGLDVVDRADGGGIAVDAALRTSDPFIHAAGDVAAADHPLLDTRLRVEHWANALNGGPAAARAMLGQDISYDRVPYFFSDQYDLGMEYSGYAPPGSYDQVVCRGDVGKREFIAFWLREGRVLAGMNVNVWDVAGDVQQLIRSGTPLDPEKLTDPTVPLTSLLP
notes: FAD flavoprotein; pRSET-b (vector His tag), E. coli BL21(DE3), Ni-Sepharose purified; GTG start changed to ATG; cloning primers encode N-terminal MVDAHQT, C-terminal LTSLLP

Experiments:
[1] = substrate: NC(=O)C1=CN([C@@H]2O[C@H](COP(=O)(O)OP(=O)(O)OC[C@H]3O[C@@H](n4cnc5c(N)ncnc54)[C@H](O)[C@@H]3O)[C@@H](O)[C@H]2O)C=CC1; experiment: spectrophotometric DCPIP reduction; format: biochemical, Streptomyces ahygroscopicus; conditions: DCPIP as electron acceptor
[2] = substrate: NC(=O)C1=CN([C@@H]2O[C@H](COP(=O)(O)OP(=O)(O)OC[C@H]3O[C@@H](n4cnc5c(N)ncnc54)[C@H](O)[C@@H]3O)[C@@H](O)[C@H]2O)C=CC1; experiment: spectrophotometric DCPIP reduction; format: biochemical, Streptomyces hygroscopicus; conditions: DCPIP as electron acceptor

Row | Protein | Km [1] | kcat [1] | Km [2] | kcat [2]
1 | B1 | 25.4 µM | 6.43 s⁻¹ |  | 
2 | B2 |  |  | 64 µM | 2.02 s⁻¹
